Test results: patent US20250243277A1 (AVACTA LIFE SCIENCES, published 2025)

B1: Clone 51 (designed binder)
chain: MIPGGLSEAKPATPEIQEIVDKVKPQLEEKTGETYGKLEAVQYKTQVVSHHASPSHIGTNYYIKVRAGDNKYMHLKVFKSLTTDPNWDVHEDLVLTGYQVDKNKDDELTGF
notes: His-tagged
B2: Clone 57 (designed binder)
chain: MIPGGLSEAKPATPEIQEIVDKVKPQLEEKTGETYGKLEAVQYKTQVVELDGDHTWLGTNYYIKVRAGDNKYMHLKVFKSLRQLHRIWYFEDLVLTGYQVDKNKDDELTGF
notes: His-tagged
B3: Clone 53 (designed binder)
chain: MIPGGLSEAKPATPEIQEIVDKVKPQLEEKTGETYGKLEAVQYKTQVVAWDWLPAYRGTNYYIKVRAGDNKYMHLKVFKSLFKFQNESFAEDLVLTGYQVDKNKDDELTGF
notes: His-tagged
B4: Clone 72 (designed binder)
chain: MIPGGLSEAKPATPEIQEIVDKVKPQLEEKTGETYGKLEAVQYKTQVVIHEPEIWWYGTNYYIKVRAGDNKYMHLKVFKSLHKADRQKEREDLVLTGYQVDKNKDDELTGF
notes: His-tagged
B5: Clone 74 (designed binder)
chain: MIPGGLSEAKPATPEIQEIVDKVKPQLEEKTGETYGKLEAVQYKTQVVRRWELWSFQGTNYYIKVRAGDNKYMHLKVFKSLWQEHTDSVEEDLVLTGYQVDKNKDDELTGF
notes: His-tagged
B6: Clone 83 (designed binder)
chain: MIPGGLSEAKPATPEIQEIVDKVKPQLEEKTGETYGKLEAVQYKTQVVIYHELWNFYGTNYYIKVRAGDNKYMHLKVFKSLDNNGDGNWQEDLVLTGYQVDKNKDDELTGF
notes: His-tagged
B7: Clone 85 (designed binder)
chain: MIPGGLSEAKPATPEIQEIVDKVKPQLEEKTGETYGKLEAVQYKTQVVNDGKSLVLAGTNYYIKVRAGDNKYMHLKVFKSLRLWDDRVSGEDLVLTGYQVDKNKDDELTGF
notes: His-tagged
B8: Clone 50 (designed binder)
chain: MIPGGLSEAKPATPEIQEIVDKVKPQLEEKTGETYGKLEAVQYKTQVVGRQVKWAWTGTNYYIKVRAGDNKYMHLKVFKSLFKQHHNISEEDLVLTGYQVDKNKDDELTGF
notes: His-tagged
B9: Clone 59 (designed binder)
chain: MIPGGLSEAKPATPEIQEIVDKVKPQLEEKTGETYGKLEAVQYKTQVVREPALWHFRGTNYYIKVRAGDNKYMHLKVFKSLTFKVDTWKVEDLVLTGYQVDKNKDDELTGF
notes: His-tagged
B10: Clone 44 (designed binder)
chain: MIPGGLSEAKPATPEIQEIVDKVKPQLEEKTGETYGKLEAVQYKTQVVRTKETKKSWGTNYYIKVRAGDNKYMHLKVFKSLQKIHAIFYVEDLVLTGYQVDKNKDDELTGF
notes: His-tagged
B11: Clone 76 (designed binder)
chain: MIPGGLSEAKPATPEIQEIVDKVKPQLEEKTGETYGKLEAVQYKTQVVHDFTIRYPWGTNYYIKVRAGDNKYMHLKVFKSLEYHVTKRDQEDLVLTGYQVDKNKDDELTGF
notes: His-tagged
B12: Clone 8 (designed binder)
chain: MIPGGLSEAKPATPEIQEIVDKVKPQLEEKTGETYGKLEAVQYKTQVVPLPDPIDWVGTNYYIKVRAGDNKYMHLKVFKSLHIHLNQIYREDLVLTGYQVDKNKDDELTGF
notes: His-tagged
B13: Clone 7 (designed binder)
chain: MIPGGLSEAKPATPEIQEIVDKVKPQLEEKTGETYGKLEAVQYKTQVVRQYYEWSWVGTNYYIKVRAGDNKYMHLKVFKSLFESPTEDNDEDLVLTGYQVDKNKDDELTGF
notes: His-tagged
B14: Clone 47 (designed binder)
chain: MIPGGLSEAKPATPEIQEIVDKVKPQLEEKTGETYGKLEAVQYKTQVVGVKQTWNWNGTNYYIKVRAGDNKYMHLKVFKSLFGLNDDEPVEDLVLTGYQVDKNKDDELTGF
notes: His-tagged
B15: Clone 69 (designed binder)
chain: MIPGGLSEAKPATPEIQEIVDKVKPQLEEKTGETYGKLEAVQYKTQVVYKVDNNNYQGTNYYIKVRAGDNKYMHLKVFKSLITWQLNQPREDLVLTGYQVDKNKDDELTGF
notes: His-tagged
B16: Clone 43 (designed binder)
chain: MIPGGLSEAKPATPEIQEIVDKVKPQLEEKTGETYGKLEAVQYKTQVVVQHPQWHWKGTNYYIKVRAGDNKYMHLKVFKSLVQQRDVWINEDLVLTGYQVDKNKDDELTGF
notes: His-tagged
B17: Clone 5 (designed binder)
chain: MIPGGLSEAKPATPEIQEIVDKVKPQLEEKTGETYGKLEAVQYKTQVVFLDWKQHWRGTNYYIKVRAGDNKYMHLKVFKSLFNDKHNSTEDLVLTGYQVDKNKDDELTGF
notes: His-tagged
B18: Clone 60 (designed binder)
chain: MIPGGLSEAKPATPEIQEIVDKVKPQLEEKTGETYGKLEAVQYKTQVVPQVQEPWWIGTNYYIKVRAGDNKYMHLKVFKSLYKAYIQGWNEDLVLTGYQVDKNKDDELTGF
notes: His-tagged
B19: Clone 78 (designed binder)
chain: MIPGGLSEAKPATPEIQEIVDKVKPQLEEKTGETYGKLEAVQYKTQVVDQGWWENWAGTNYYIKVRAGDNKYMHLKVFKSLIWENNLRIHEDLVLTGYQVDKNKDDELTGF
notes: His-tagged
B20: Clone 87 (designed binder)
chain: MIPGGLSEAKPATPEIQEIVDKVKPQLEEKTGETYGKLEAVQYKTQVVKRLHLPQYPGTNYYIKVRAGDNKYMHLKVFKSLGNIEPITDLEDLVLTGYQVDKNKDDELTGF
notes: His-tagged
B21: Clone 45 (designed binder)
chain: MIPGGLSEAKPATPEIQEIVDKVKPQLEEKTGETYGKLEAVQYKTQVVREYPHFQGYGTNYYIKVRAGDNKYMHLKVFKSLILNAGGIRWEDLVLTGYQVDKNKDDELTGF
notes: His-tagged
B22: Clone 42 (designed binder)
chain: MIPGGLSEAKPATPEIQEIVDKVKPQLEEKTGETYGKLEAVQYKTQVVIQHIWWDFVGTNYYIKVRAGDNKYMHLKVFKSLSRLEPAGHQEDLVLTGYQVDKNKDDELTGF
notes: His-tagged
B23: Clone 70 (designed binder)
chain: MIPGGLSEAKPATPEIQEIVDKVKPQLEEKTGETYGKLEAVQYKTQVVIEEPSAFWWGTNYYIKVRAGDNKYMHLKVFKSLLRVRHSAYREDLVLTGYQVDKNKDDELTGF
notes: His-tagged
B24: Clone 55 (designed binder)
chain: MIPGGLSEAKPATPEIQEIVDKVKPQLEEKTGETYGKLEAVQYKTQVVAGWSLPPHLGTNYYIKVRAGDNKYMHLKVFKSLINHAGQKSDEDLVLTGYQVDKNKDDELTGF
notes: His-tagged
B25: Clone 71 (designed binder)
chain: MIPGGLSEAKPATPEIQEIVDKVKPQLEEKTGETYGKLEAVQYKTQVVASFPEISWYGTNYYIKVRAGDNKYMHLKVFKSLKNYPKTGVTEDLVLTGYQVDKNKDDELTGF
notes: His-tagged
B26: Clone 65 (designed binder)
chain: MIPGGLSEAKPATPEIQEIVDKVKPQLEEKTGETYGKLEAVQYKTQVVDYRAIWHWWGTNYYIKVRAGDNKYMHLKVFKSLFHAEGDIWDEDLVLTGYQVDKNKDDELTGF
notes: His-tagged
B27: Clone 66 (designed binder)
chain: MIPGGLSEAKPATPEIQEIVDKVKPQLEEKTGETYGKLEAVQYKTQVVNLKPDVQGSGTNYYIKVRAGDNKYMHLKVFKSLIVVKRYWYVEDLVLTGYQVDKNKDDELTGF
notes: His-tagged
B28: Clone 63 (designed binder)
chain: MIPGGLSEAKPATPEIQEIVDKVKPQLEEKTGETYGKLEAVQYKTQVVQEYEDQEWAGTNYYIKVRAGDNKYMHLKVFKSLHLWNQQIYREDLVLTGYQVDKNKDDELTGF
notes: His-tagged
B29: Clone 61 (designed binder)
chain: MIPGGLSEAKPATPEIQEIVDKVKPQLEEKTGETYGKLEAVQYKTQVVPTGTHQWAAGTNYYIKVRAGDNKYMHLKVFKSLWASLESGQNEDLVLTGYQVDKNKDDELTGF
notes: His-tagged
B30: Clone 6 (designed binder)
chain: MIPGGLSEAKPATPEIQEIVDKVKPQLEEKTGETYGKLEAVQYKTQVVLSEAVYIWAGTNYYIKVRAGDNKYMHLKVFKSLNSRWYGPLGEDLVLTGYQVDKNKDDELTGF
notes: His-tagged
B31: Clone 73 (designed binder)
chain: MIPGGLSEAKPATPEIQEIVDKVKPQLEEKTGETYGKLEAVQYKTQVVDWGWGIPWVGTNYYIKVRAGDNKYMHLKVFKSLWLYGVKRLPEDLVLTGYQVDKNKDDELTGF
notes: His-tagged
B32: Clone 75 (designed binder)
chain: MIPGGLSEAKPATPEIQEIVDKVKPQLEEKTGETYGKLEAVQYKTQVVINQHENFKQGTNYYIKVRAGDNKYMHLKVFKSLHLFHGLWYIEDLVLTGYQVDKNKDDELTGF
notes: His-tagged
B33: Clone 64 (designed binder)
chain: MIPGGLSEAKPATPEIQEIVDKVKPQLEEKTGETYGKLEAVQYKTQVVIAHIHWKYFGTNYYIKVRAGDNKYMHLKVFKSLHLAKGQWREEDLVLTGYQVDKNKDDELTGF
notes: His-tagged

Target: T1, human PD-L1-Fc (R&D Systems) (human, UniProt Q9NZQ7 19-239)
T1 construct: Bought from R&D Systems; Biotinylated in-house for the phage selection; also called huPD-L1-Fc; human PD-L1-Fc antigen; not shown: Fc part of the bought fusion
T1 sequence (Q9NZQ7 19-239 limits assumed): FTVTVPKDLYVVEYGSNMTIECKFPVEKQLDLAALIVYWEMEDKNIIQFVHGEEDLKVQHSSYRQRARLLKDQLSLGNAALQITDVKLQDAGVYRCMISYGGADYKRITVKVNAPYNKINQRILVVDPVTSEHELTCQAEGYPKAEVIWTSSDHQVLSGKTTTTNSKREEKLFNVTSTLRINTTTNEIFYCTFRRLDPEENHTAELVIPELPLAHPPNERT
Test: soluble Affimer ELISA

Binding result, binds:
B1
B2
B3
B4
B5
B6
B7
B8
B9
B10
B11
B12
B13
B14
B15
B16
B17
B18
B19
B20
B21
B22
B23
B24
B25
B26
B27
B28
B29
B30
B31
B32
B33
